Publication PMC8446286

T1: GST-PIF4 (Arabidopsis thaliana, UniProt Q8W2F3 1-430)
T1 sequence: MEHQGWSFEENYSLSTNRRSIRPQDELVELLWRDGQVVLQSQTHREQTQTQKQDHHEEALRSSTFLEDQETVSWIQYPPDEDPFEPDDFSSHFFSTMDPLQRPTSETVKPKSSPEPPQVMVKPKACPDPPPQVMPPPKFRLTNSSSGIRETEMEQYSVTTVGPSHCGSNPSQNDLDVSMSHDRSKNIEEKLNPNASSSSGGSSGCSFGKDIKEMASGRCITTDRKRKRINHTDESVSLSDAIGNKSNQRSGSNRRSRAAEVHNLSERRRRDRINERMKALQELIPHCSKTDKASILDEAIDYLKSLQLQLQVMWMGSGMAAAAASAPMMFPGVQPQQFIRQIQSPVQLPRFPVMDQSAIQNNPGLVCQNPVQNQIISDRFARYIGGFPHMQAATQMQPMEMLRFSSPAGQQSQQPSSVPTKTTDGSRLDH


target: T1, GST-PIF4; experiment: EMSA

Binder | binding result
NAC019pro-G1 (dsDNA) DNA 1: ATCACGACGATCTAACTGACACACGTGTCAGAATTCAAAAGTGTTTATAGATAAACACAA DNA 2: TTGTGTTTATCTATAAACACTTTTGAATTCTGACACGTGTGTCAGTTAGATCGTCGTGAT | binds
IAA29pro-p (dsDNA) DNA 1: GATGTTGGATGTCTAAATTCGTTGAATCATGTGTCTCTTGACGAAATATGCATCTTCTTA DNA 2: TAAGAAGATGCATATTTCGTCAAGAGACACATGATTCAACGAATTTAGACATCCAACATC | no binding
NAC019pro-G34 (dsDNA) DNA 1: TTGCGCCTAACTTCTACGATAGACACGTGGACACGTGTCGTCATGATGTAGTTTTGTCCG DNA 2: CGGACAAAACTACATCATGACGACACGTGTCCACGTGTCTATCGTAGAAGTTAGGCGCAA | binds
NAC019pro-G2 (dsDNA) DNA 1: CATTTCAGAAAACCCGTCAACAAAAAACACGTGAAATAAAATATCTCTTCCTTTACCAGT DNA 2: ACTGGTAAAGGAAGAGATATTTTATTTCACGTGTTTTTTGTTGACGGGTTTTCTGAAATG | no binding
IAA29pro-G (dsDNA) DNA 1: GAGTAGTCACGCACGCACGACTCCGTTCACGTGACATTCACGTTGATATTTCCCCCTCTA DNA 2: TAGAGGGGGAAATATCAACGTGAATGTCACGTGAACGGAGTCGTGCGTGCGTGACTACTC | binds
